{"source": "paper PMC8754651", "about": "(2021)", "parents": {"B1": {"name": "human RPB6 (residues 1–24), NTT peptide [human] / human TFIIH p62 PH domain (PH-D) (residues 1–108) [human] (parent complex)", "chain 1": "MSDNEDNFDGDDFDDVEEDEGLDD", "chain 2": "MATSSEEVLLIVKKVRQKKQDGALYLMAERIAWAPEGKDRFTISHMYADIKCQKISPEGKAKIQLQLVLHAGDTTNFHFSNESTAVKERDAVKDLLQQLLPKFKRKAN"}}, "data": [{"variants_of": "B1", "experiment": "ITC", "units": {"Kd": "µM"}, "values": [{"variant": "chain 1 S2A", "Kd": 3.65}, {"variant": "chain 1 F13A, chain 1 V16A", "Kd": 7.35}, {"variant": "chain 1 V16A", "Kd": 7.14}, {"variant": "chain 1 F8A", "Kd": 2.85}]}]}
